# Test results reported in paper PMC12817906, “SVCV phosphoprotein hijacks phase separation to immobilize the IRF3-TBK1 signaling axis and suppress interferon antiviral immunity” (Journal of Virology, 2025).
# “And” between values parts separate entries of the source, which are not always exact repeats. Equal entries are not always repeated.
# What was measured:
# [1] = target: purified recombinant zebrafish IRF3 (His-tagged) (zebrafish); experiment: MST; Monolith NT.115; homotypic titration (SVCV-P with SVCV-P, IRF3 with IRF3), labeled protein with unlabeled ligand at 16 concentrations, room temperature; which label was used is not told
# [2] = target: mCherry-tagged zebrafish TBK1 protein (zebrafish); experiment: MST; Monolith NT.115; mCherry-tagged TBK1 as the fluorescent protein, unlabeled SVCV-P or IRF3 at 16 concentrations, protein storage buffer, room temperature 10 min, 40% LED, medium MST power
# [3] = target: the molecule itself; experiment: MST; Monolith NT.115; homotypic titration (SVCV-P with SVCV-P, IRF3 with IRF3), labeled protein with unlabeled ligand at 16 concentrations, room temperature; which label was used is not told
# [4] = target: T1, mCherry-tagged zebrafish TBK1 protein (zebrafish, UniProt A0ACM8QAS8 1-727); experiment: MST; Monolith NT.115; mCherry-tagged TBK1 as the fluorescent protein, unlabeled SVCV-P or IRF3 at 16 concentrations, protein storage buffer, room temperature 10 min, 40% LED, medium MST power; details: both partners purified
# T1 construct: also called mCherry-TBK1; pFastBac1-mCherry-His-TBK1; source: Sf9 (baculovirus), purified (Ni-NTA)
# T1 sequence: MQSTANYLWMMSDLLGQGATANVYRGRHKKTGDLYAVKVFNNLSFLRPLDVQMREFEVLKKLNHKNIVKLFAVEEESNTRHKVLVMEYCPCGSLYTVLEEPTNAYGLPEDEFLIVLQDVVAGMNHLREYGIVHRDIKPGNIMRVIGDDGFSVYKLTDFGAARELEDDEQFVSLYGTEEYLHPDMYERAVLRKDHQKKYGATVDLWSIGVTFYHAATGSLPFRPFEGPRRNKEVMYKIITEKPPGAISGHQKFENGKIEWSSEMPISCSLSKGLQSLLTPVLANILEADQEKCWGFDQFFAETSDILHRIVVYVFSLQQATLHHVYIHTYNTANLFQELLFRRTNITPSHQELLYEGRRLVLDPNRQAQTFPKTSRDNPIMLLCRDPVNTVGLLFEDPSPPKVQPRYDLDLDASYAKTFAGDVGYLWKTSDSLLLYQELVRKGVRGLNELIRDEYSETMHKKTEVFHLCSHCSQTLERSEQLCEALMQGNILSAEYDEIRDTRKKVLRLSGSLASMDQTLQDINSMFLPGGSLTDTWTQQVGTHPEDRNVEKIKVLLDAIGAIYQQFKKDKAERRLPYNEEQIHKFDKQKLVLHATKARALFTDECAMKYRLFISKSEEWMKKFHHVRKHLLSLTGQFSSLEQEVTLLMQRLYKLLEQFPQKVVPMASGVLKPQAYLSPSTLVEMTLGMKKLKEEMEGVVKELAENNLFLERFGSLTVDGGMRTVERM
Molecule,Kd [1],Kd [2],Kd [3],Kd [4]
purified recombinant zebrafish IRF3 (His-tagged) (natural protein),70 µM,81.7 µM,–,–
"purified recombinant SVCV-P (His-tagged) (natural protein, phosphoprotein (P) of spring viremia of carp virus; The MST methods say only 'purified SVCV-P'; the His-only construct is surmised (EGFP-GST, EGFP-His and baculovirus EGFP-His forms were also made); also called pET28a-SVCV-P-His; source: E. coli BL21 (DE3), purified (Ni-NTA)) MSLHSKLSESLKAYADLDKTVKEIEEQVSSMEEPVPKTVKYVTFEENLSEEEWESDSGDDDEDSIDDSLIPDYLRESSSITVDEDEEDQKEDMEEHLPTVSWEEEPTGIDIGFGPGIVMPSVSNHEGGTYVRYNGLGGVDPNCKDLISKMMRSLIGQIGNKYGYDIDLFDYQGDFLEVFLPHKPSKEDVRPDIRIGKKNEEGTSKQVSKPRGKEKIVLKTGDECGRFPMNKEAKKREPEGLWEVMKVLSVQFDPWKEDEPPLSLTIRDLFISESEFRLHCNHSQTEREMALVGIKLRRLYNKLYQKYRL",–,–,30.4 µM,8.34 µM and 2.98 µM
